Laboratory results from patent US8754031B2, “Use of prolactin receptor antagonists in combination with an agent that inactivates the HER2/neu signaling pathway” (Oncolix, Inc., priority 2004, dated 2014).

What was measured:
[1] = system: human breast cancer cell lines MDA-MB-134, T-47D, BT-474 and MCF-7; test: TUNEL assay, apoptosis by DNA fragmentation in breast cancer cell lines; format: cell-based
Experimental: The human breast cancer cell lines MDA-MB-134, T-47D, BT-474 and MCF-7 were obtained from ATCC. These breast cancer cell lines were chosen based on their PRLR levels. The cell line T-47D had the highest PRLR level followed by MDA-MB-134, BT-474, MCF-7 in decreasing order of PRLR levels (Peirce S and Chen W Y., 2001, J. Endocrinol. 171:R1-4).
T-47D cells obtained from ATCC were grown in RPMI 1640 (phenol red free), supplemented with 10% FBS (GIBCO BRL). BT-474 cells were grown in RPMI 1640 medium (phenol red free) supplemented with 10% FBS and ATCC recommended supplements. MCF-7 cells were grown in DMEM medium (phenol red free), supplemented with 10% FBS. The cells were grown at 37° C. in a humid atmosphere in the presence of 5% CO2. The MDA-MB-134 cells were grown in Leibovitz's L-15 medium supplemented with 20% FBS and grown in CO2 free atmosphere. The breast cancer cells were trypsinized (0.02% Trypsin—EDTA) and grown in their respective media (phenol red free) supplemented with 10% CSS (Charcoal stripped serum) for a week. Subsequently the cells were trypsinized again and plated onto an 8 chambered slide system (Lab Tek II) at a confluence of 60-70% per chamber. The next day treatments were performed on the breast cancer cells using their respective media (phenol red free), supplemented with 1% CSS. The MDA-MB-134 VI cells were grown in phenol red containing medium, but with the same serum conditions as the other breast cancer cells.
(§1) Terminal deoxynucleotidyl transferase mediated dUTP nick end labeling (TUNEL) assay. Nicks of the fragmented DNA are labeled at their 3-OH ends. The fluorescein-labeled dUTP is incorporated at the 3-OH ends by using the enzyme terminal deoxynucleotidyl transferase. After the assigned period of treatment the chambers were dismantled as per the manufacturer's instructions and the TUNEL assay (Apoptosis detection system, Fluorescein-Promega) was performed as per the manufacturer's instructions. The slide was examined under a FITC filter using an Olympus IX 70 microscope system.

[2] = system: T47D cells; test: Cell proliferation assay (cell counting), comparison with estrogen and tamoxifen; format: cell-based, human
Experimental: Cell proliferation assays. hPRLA was tested for its ability to inhibit breast cancer cell proliferation in tissue culture. The human breast cancer cells were grown in corresponding culture media according to ATCC recommendations. Cells were maintained at 37° C. in a humidified atmosphere of 5% CO2 in air. The assay conditions were essentially as described by Ginsburg and Vonderharr (Cancer Res., 55:2591-2595 (1995)). For individual growth experiments, cells were plated in 12 well culture plates at a density of approximately 2×10^4/ml, 1 ml/well. Cells were then allowed to attach for one day (T-47D, MCF-7, HTB19, and HTB20 cells, except for HTB 123, which is a suspension cells), then the overlying media was removed and changed to serum-free conditions with media containing ITS (insulin-transferring-selenium-BSA-linoleic acid culture supplement; Collaborative Research Bedford, Mass.). Varying concentrations of hPRL alone or in combination with hPRLA were introduced. After an additional three days in culture, cells were harvested after brief trypsinization and counted in a cell counter.
For certain experiments, a mixed cell culture assay was used. In this assay, breast cancer cells were co-cultured with expressor cells which had been transfected with nucleic acid encoding PRL or a PRL variant and expressing those recombinant proteins. By varying the number of expressor cells, the amount of PRL or PRL variant present in the mixed cell culture was increased or decreased. A fixed number of breast cancer cells (T47D) were added to wells of a multi-well cell culture plate. In certain wells, which served as a control, no expresser cells were added. Then, increasing numbers of expresser cells (transfected L cells expressing either HPRL (L-PRL) or hPRLA (L-PRLA)) were added to breast cancer cell-containing wells to create mixed cultures. The same numbers of expressor cells were cultured in parallel (without T47D cells) to serve as controls. After culturing under standard conditions for a period of time, the number of cells present in the wells was counted, and the number of L cells in the corresponding control culture was subtracted. The resulting number could then be compared to the number of T47D cells in the T47D control culture to evaluate the effects of the recombinant product on breast cancer cell proliferation.

[3] = system: T-47D cells; test: Cell proliferation, ViaCount reagent and Guava PCA cytometer (viable cells); format: cell-based, human; conditions: 24 hours of treatment, G129R 1 μg/ml, HERCEPTIN 20 μg/ml (FIG. 3)
Experimental: FIG. 3. […] The y-axis represents percent viable cells after each treatment.
This assay permits the determination of the number of total and viable cells in cultures. Cell proliferation was determined as a measure of the number of viable cells after 24 hours of treatment (FIG. 3).

[4] = system: prostate cancer cells; test: TUNEL assay, apoptosis in prostate cancer cells; format: cell-based; conditions: two prostate cancer cells, 250 ng, 24 hours
Experimental: as §1
The samples were in duplicate and each sample constituted about 2 million cells.

[5] = system: STAT5 phosphorylation in T-47D human breast cancer cells; test: hPRL induction of tyrosine phosphorylation of STAT5 protein; format: cell-based
From the text: Assay of hPRL induction of tyrosine phosphorylation of STAT5 protein. […] Tyrosyl phosphorylation of STAT 5 is a receptor mediated event and is thought to be an important step in ligand-induced signal transduction (Wakao et al., EMBO J., 13:2182-2191 (1994); Kazansky et al., Mol. Endocrinol., 9:1598-1609 (1995); Waxman et al., J. Biol. Chem., 270:13262-13270 (1995)). This assay was used to evaluate the ability of hPRL and hPRLA to inhibit induction of STAT 5 phosphorylation by wild type PRL.
Briefly, human breast cancer cells were plated in 12-well plates. After pre-incubation in serum-free DMEM for 2-3 hours, the cells were exposed to various concentration of hPRL and hPRLA in serum-free DMEM. […]

[6] = system: Stat5a/b phosphorylation in T-47D cells; test: Inhibition of phosphorylation of Stat5a/b, Western blot; format: cell-based, human; conditions: 48 hours, 10 μg, in the presence of hPRL 100 ng/ml (FIG. 6)
Experimental: FIG. 6. […] T-47D cells were cultured overnight at 60% confluency and were maintained in phenol red-free and serum-free RPMI-1640 for 72 hours before stimulation. […] Lane A is the control cells that are untreated. […] Activation of Stat5 was analyzed by WB with anti-phospho-specific antibodies in 50 μg protein extracts.

[7] = Preclinical safety in animals; format: in vivo; conditions: mice and rabbits, even at high doses
From the text: Previously, the inventors developed a hPRLR antagonist, G129R. G129R is prolactin with a single amino acid substation; the glycine at position 129 of the native sequence is replaced with an arginine. G129R has anti-tumor effects in cultured human breast cancer cells and in nude mouse models.

[8] = system: HER2; test: HER2 phosphorylation, immunoprecipitation and Western blot (Example 11); format: cell-based, human; conditions: multiple breast cancer cells
From the text: Human PRL signals via cell surface specific receptors that lead to JAK2/STAT/MAPK activation, which ultimately promotes cell proliferation. Phosphorylation of HER2 protein is a crucial step in the activation of its downstream signaling molecules such as Ras/MAPK cascade.
Immunoprecipitation experiments confirm the role of hPRL and G129R in regulation of phosphorylation of HER2 in multiple breast cancer cell lines. A panel of breast cancer cell lines with different levels of hPRLR and HER2 are treated with different doses of PRL (from ng/ml to ug/ml to establish a dose response curve) and terminated at the various time points (from 15 min to 24 hr to establish response time course). The optimal stimulatory dose and the response time courses are determined for each cell lines. Anti-HER2 antibody is used to immunoprecipitate HER2 in cell lysates and anti-phospho-HER2 antibody is used (Western blot) to identify the level of phosphorylated Her2 in response to the treatment.

[9] = in vivo

Molecule: CC/C(=C(\c1ccc(O)cc1)c1ccc(OCCN(C)C)cc1)c1ccccc1 [4-OH-Tamoxifen, reference compound]
- apoptosis, DNA fragmentation ([1]; T-47D, MCF-7 or BT-474 cells, concentration as high as 1 μM): did not induce apoptosis

Molecule: CC/C(=C(\c1ccccc1)c1ccc(OCCN(C)C)cc1)c1ccccc1 [tamoxifen, reference compound]
- proliferation of T47D cells relative to untreated control cultures [2]: comparable inhibitory effect

Molecule: estrogen [reference compound]
- proliferation of T47D cells relative to untreated control cultures [2]: increased proliferation

B1: G129R: hPRLR antagonist: prolactin in which the glycine at position 129 of the native sequence is replaced with an arginine (protein)
chain: LPICPGGAARCQVTLRDLFDRAVVLSHYIHNLSSEMFSEFDKRYTHGRGFITKAINSCHTSSLATPEDKEQAQQMNQKDFLSLIVSILRSWNEPLYHLVTEVRGMQEAPEAILSKAVEIEEQTKRLLERMELIVSQVHPETKENEIYPVWSGLPSLQMADEESRLSAYYNLLHCLRRDSHKIDNYLKLLKCRIIHNNNC
- decrease in proliferative ability / cell number compared to untreated control cells [3]: 21.5%
- apoptosis, DNA fragmentation ([1]; 250 ng, 24 hours treatment, all four PRLR positive breast cancer cell lines): induced apoptosis
- DNA fragmentation in breast cancer cells ([1]; after 2 hours of treatment, 50 ng/ml): apparent
- apoptosis detected by TUNEL assay [4]: underwent apoptosis
- block of hPRL-induced phosphorylation of STAT5 proteins [5]: able to block the signal transduction induced by hPRL
- proliferation of T47D cells relative to untreated control cultures [2]: comparable inhibitory effect
- inhibition of Stat5a/b phosphorylation [6]: inhibitory effect
- safety in animals [7]: safe
- phosphorylation of HER2 [8]: able to specifically block HER2 phosphorylation
- half-life [9]: 1 to 2 h

B2: hPRL: human prolactin, wild type hormone, used as positive control and stimulus (protein)
chain: LPICPGGAARCQVTLRDLFDRAVVLSHYIHNLSSEMFSEFDKRYTHGRGFITKAINSCHTSSLATPEDKEQAQQMNQKDFLSLIVSILRSWNEPLYHLVTEVRGMQEAPEAILSKAVEIEEQTKRLLEGMELIVSQVHPETKENEIYPVWSGLPSLQMADEESRLSAYYNLLHCLRRDSHKIDNYLKLLKCRIIHNNNC
- proliferation of T47D cells relative to untreated control cultures [2]: increased proliferation
- phosphorylation of HER2 [8]: able to phosphorylate HER2
